{
  "source": "paper PMC10279719",
  "about": "(2023)",
  "binders": {"B1": {"name": "CrkII SH2 domain (CrkII^SH2, residues 6–120) (domain or fragment)", "chain": "DSEERSSWYWGRLSRQEAVALLQGQRHGVFLVRDSSTSPGDYVLSVSENSRVSHYIINSSGPRPPVPPSPAQPPPGVSPSRLRIGDQEFDSLPALLEFYKIHYLDTTTLIEPVSR", "modifications": "biotin (EZ-Link NHS-PEG4-Biotin) where immobilised for SPR"}, "B2": {"name": "14-3-3γ (natural protein)", "chain": "MVDREQLVQKARLAEQAERYDDMAAAMKNVTELNEPLSNEERNLLSVAYKNVVGARRSSWRVISSIEQKTSADGNEKKIEMVRAYREKIEKELEAVCQDVLSLLDNYLIKNCSETQYESKVFYLKMKGDYYRYLAEVATGEKRATVVESSEKAYSEAHEISKEHMQPTHPIRLGLALNYSVFYYEIQNAPEQACHLAKTAFDDAIAELDTLNEDSYKDSTLIMQLLRDNLTLWTSDQQDDDGGEGNN"}, "B3": {"name": "full length CrkII, monomer (CrkII^FL monomer) (natural protein)", "chain": "MAGNFDSEERSSWYWGRLSRQEAVALLQGQRHGVFLVRDSSTSPGDYVLSVSENSRVSHYIINSSGPRPPVPPSPAQPPPGVSPSRLRIGDQEFDSLPALLEFYKIHYLDTTTLIEPVSRSRQGSGVILRQEEAEYVRALFDFNGNDEEDLPFKKGDILRIRDKPEEQWWNAEDSEGKRGMIPVPYVEKYRPASASVSALIGGNQEGSHPQPLGGPEPGPYAQPSVNTPLPNLQNGPIYARVIQKRVPNAYDKTALALEVGELVKVTKINVSGQWEGECNGKRGHFPFTHVRLLDQQNPDEDFS", "modifications": "biotin (EZ-Link NHS-PEG4-Biotin) where immobilised for SPR"}, "B4": {"name": "full length CrkII, dimer (CrkII^FL dimer) (natural protein)", "chain": "B3 chain", "modifications": "biotin (EZ-Link NHS-PEG4-Biotin) where immobilised for SPR"}, "B5": {"name": "CrkII NSH3 domain (CrkII^NSH3, residues 134–191) (domain or fragment)", "chain": "AEYVRALFDFNGNDEEDLPFKKGDILRIRDKPEEQWWNAEDSEGKRGMIPVPYVEKYR"}},
  "assay_in_all_cases": "SPR",
  "key": {"[1]": {"target": "T1, PEAK1^IDR1 phosphorylated by Src (human, UniProt Q9H792 1082-1746, phosphotyrosine at 1107 (by Src in vitro, MS/MS); biotin (EZ-Link NHS-PEG4-Biotin))", "T1 chain": "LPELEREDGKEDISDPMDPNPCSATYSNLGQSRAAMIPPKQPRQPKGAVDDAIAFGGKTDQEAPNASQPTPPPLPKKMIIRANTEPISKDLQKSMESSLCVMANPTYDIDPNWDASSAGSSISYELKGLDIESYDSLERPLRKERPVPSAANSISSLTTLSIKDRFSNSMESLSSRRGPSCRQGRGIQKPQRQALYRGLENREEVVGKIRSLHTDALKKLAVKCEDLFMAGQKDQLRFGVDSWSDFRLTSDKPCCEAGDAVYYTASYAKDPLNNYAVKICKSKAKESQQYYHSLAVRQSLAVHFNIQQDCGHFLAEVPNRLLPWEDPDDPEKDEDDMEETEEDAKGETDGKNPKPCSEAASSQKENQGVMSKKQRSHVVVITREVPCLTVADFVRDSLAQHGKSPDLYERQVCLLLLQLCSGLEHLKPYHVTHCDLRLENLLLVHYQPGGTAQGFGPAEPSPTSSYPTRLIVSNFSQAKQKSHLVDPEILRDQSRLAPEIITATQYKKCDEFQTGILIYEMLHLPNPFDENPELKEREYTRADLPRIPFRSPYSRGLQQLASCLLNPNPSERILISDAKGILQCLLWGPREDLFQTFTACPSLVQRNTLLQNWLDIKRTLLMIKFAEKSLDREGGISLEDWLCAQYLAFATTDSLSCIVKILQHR"}, "[2]": {"target": "T2, PEAK2^IDR1 phosphorylated by Src (human, UniProt Q86YV5 802-1406, treated with Src kinase in vitro, sites not stated; phosphorylated at the tandem site 14-3-3 motif (RAA(pS)SP) as purified; biotin (EZ-Link NHS-PEG4-Biotin))", "T2 chain": "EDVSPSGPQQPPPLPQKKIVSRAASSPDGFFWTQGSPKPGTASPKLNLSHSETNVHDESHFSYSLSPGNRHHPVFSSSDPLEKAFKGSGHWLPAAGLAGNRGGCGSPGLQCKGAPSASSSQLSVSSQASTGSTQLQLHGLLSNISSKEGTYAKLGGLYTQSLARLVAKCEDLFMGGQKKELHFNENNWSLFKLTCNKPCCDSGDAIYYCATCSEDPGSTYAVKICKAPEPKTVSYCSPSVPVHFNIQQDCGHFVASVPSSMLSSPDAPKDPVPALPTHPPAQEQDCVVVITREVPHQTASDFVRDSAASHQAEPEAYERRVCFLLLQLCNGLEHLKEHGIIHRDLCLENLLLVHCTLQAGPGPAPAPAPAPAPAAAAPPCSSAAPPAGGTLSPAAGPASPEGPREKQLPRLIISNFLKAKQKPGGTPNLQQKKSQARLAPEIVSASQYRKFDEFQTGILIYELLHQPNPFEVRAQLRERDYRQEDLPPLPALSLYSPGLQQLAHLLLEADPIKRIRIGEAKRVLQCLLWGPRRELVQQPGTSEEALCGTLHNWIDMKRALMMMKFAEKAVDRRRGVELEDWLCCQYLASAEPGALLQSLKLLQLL"}, "[3]": {"target": "T3, PEAK3^FL from insect cells, phosphorylated by Src (human, UniProt Q6ZS72 1-473, phosphotyrosine at 24 (by Src in vitro, MS/MS); phosphoserine at 69; biotin (EZ-Link NHS-PEG4-Biotin))", "T3 chain": "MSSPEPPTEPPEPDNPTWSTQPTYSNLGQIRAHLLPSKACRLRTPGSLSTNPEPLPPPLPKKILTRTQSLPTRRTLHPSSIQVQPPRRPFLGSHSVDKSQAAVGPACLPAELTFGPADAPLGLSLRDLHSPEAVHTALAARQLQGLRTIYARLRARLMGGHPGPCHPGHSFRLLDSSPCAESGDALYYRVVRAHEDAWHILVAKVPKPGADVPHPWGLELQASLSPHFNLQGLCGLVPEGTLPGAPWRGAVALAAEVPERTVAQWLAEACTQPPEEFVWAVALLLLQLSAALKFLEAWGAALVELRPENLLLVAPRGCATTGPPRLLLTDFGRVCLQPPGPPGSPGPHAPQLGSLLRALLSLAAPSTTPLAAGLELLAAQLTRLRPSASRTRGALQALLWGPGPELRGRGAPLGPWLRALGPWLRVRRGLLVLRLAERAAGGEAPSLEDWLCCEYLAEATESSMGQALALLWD"}, "[4]": {"target": "T4, full length PEAK3 from insect cells (PEAK3^FL, S69 phosphorylated) (human, UniProt Q6ZS72 1-473, phosphoserine at 69; biotin (EZ-Link NHS-PEG4-Biotin) where immobilised for SPR)", "T4 chain": "T3 chain"}, "[5]": {"target": "T5, PEAK2^IDR1 (human PEAK2 residues 802–1406) (human, UniProt Q86YV5 802-1406, phosphorylated at the tandem site 14-3-3 motif (RAA(pS)SP) as purified from insect cells; biotin (EZ-Link NHS-PEG4-Biotin) where immobilised for SPR)", "T5 chain": "T2 chain"}},
  "data": [
    {"binder": "B1", "values": [
      {"measurement": "Kd", "setting": "[1]", "result": 12.5, "unit": "µM"},
      {"measurement": "Kd", "setting": "[2]", "result": 20.7, "unit": "µM"},
      {"measurement": "Kd", "setting": "[3]", "result": 48.5, "unit": "µM"}
    ]},
    {"binder": "B2", "values": [
      {"measurement": "Kd", "setting": "[3]", "result": "< 1", "unit": "µM"}
    ]},
    {"binder": "B3", "values": [
      {"measurement": "Kd", "setting": "[2]", "result": 2.1, "unit": "µM"}
    ]},
    {"binder": "B4", "values": [
      {"measurement": "Kd", "setting": "[2]", "result": 1.4, "unit": "µM"}
    ]},
    {"binder": "B5", "values": [
      {"measurement": "Kd", "setting": "[4]", "result": 3.9, "unit": "µM"},
      {"measurement": "Kd", "setting": "[3]", "result": 6.8, "unit": "µM"},
      {"measurement": "Kd", "setting": "[5]", "result": 4.8, "unit": "µM"}
    ]}
  ]
}
